Consider two substances from US5972608.

Data set [1] deals with SalI restriction endonuclease. Nature of the data set: cleavage_in_vitro. The note with it: 125 mM NaCl.
Data set [2] concerns SWI/SNF complex (Saccharomyces cerevisiae). Nature of the data set: cleavage_in_vitro. To be noted: kcat of nucleosome remodeling, SalI-coupled; 1 mM ATP, 125 mM NaCl, 2.5 mM MgCl2; no stimulation without ATP or with ATPgS.

Substance 11-mer 5S SalI array template (pCL7c) came in with an activity in data set [1] (naked DNA, 2.5 mM MgCl2, 37 C, +/-0.03e-4) of 0.000286 U^-1 min^-1.

Turning to “11-mer 5S SalI nucleosome array (pCL7c template with histone octamers)”, the activity in data set [2] was 0.22 min⁻¹; in data set [1] (second slow phase, nucleosomal DNA, Kconf 3.2e-3, 2.5 mM MgCl2), 9.19e-07 U^-1 min^-1.
